We go through one molecule from paper doi:10.1101/2020.01.16.909549.

For the data set, the target named is T1, Rad4 Δβ-hairpin3 crosslinking construct (<SC41B>);Rad23 (crystal) (Saccharomyces cerevisiae?;Saccharomyces …, UniProt P14736;P32628 101-632;230-398, V131C;C132S;del599-605|).
T1 sequence 1: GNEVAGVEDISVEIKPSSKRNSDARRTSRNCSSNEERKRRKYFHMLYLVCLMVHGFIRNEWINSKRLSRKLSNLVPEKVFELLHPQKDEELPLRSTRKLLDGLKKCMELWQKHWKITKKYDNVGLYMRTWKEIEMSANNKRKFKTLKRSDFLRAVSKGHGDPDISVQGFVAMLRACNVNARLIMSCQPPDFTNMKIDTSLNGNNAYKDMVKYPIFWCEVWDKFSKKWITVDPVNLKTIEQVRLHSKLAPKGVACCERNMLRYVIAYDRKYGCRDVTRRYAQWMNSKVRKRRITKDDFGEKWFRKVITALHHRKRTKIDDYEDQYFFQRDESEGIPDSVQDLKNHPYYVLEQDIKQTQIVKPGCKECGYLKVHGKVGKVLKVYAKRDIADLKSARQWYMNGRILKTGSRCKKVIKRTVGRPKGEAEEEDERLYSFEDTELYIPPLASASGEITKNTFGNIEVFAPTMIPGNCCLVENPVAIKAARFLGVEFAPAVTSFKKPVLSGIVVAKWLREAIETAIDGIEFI
T1 sequence 2: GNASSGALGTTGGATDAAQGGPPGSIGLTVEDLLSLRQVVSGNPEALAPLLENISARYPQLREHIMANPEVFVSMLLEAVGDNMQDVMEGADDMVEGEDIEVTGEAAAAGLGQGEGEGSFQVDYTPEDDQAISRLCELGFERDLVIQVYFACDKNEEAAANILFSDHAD
The experiment in a line: X-ray crystallography.

B1: CGC/GCG 23-bp crystal DNA (CH9c) (dsDNA)
DNA 1: TTGACTCGACATCGCGCGCTACA
DNA 2: ATGTAGCGCGCGATGTCGAGTCA
modifications: disulfide (cystamine)-tethered dG* at top strand position 8, from 2-F-dI
Take B1: the binding result was “binds”.
